Laboratory results published in patent US20120266260A1.

Tests used:
[1] = target: Gal-deficient IgA1 (Mce) myeloma protein (human) (UniProt P01876); assay: Western blot, membrane pre-incubated with unlabeled HAA (20 ug/ml); competitor: IgG purified from the serum of an IgAN patient; densitometry
[2] = target: synthetic IgA1 hinge-region glycopeptide linked to BSA with 3 GalNAc residues (HR-GalNAc-BSA) (bovine) (UniProt P02769); assay: ELISA, wells with HR-GalNAc-BSA treated with unlabeled HAA (20 ug/ml); competitor: IgG from cell lines of IgAN patients

## Helix aspersa agglutinin (HAA)
[1]
  percent reduction of IgG binding: 66%
[2]
  percent inhibition of IgG binding: 78%
